Measurements as given in paper PMC10201424, “Biochemical characterisation of Mer3 helicase interactions and the protection of meiotic recombination intermediates” (Nucleic Acids Research, 2022).
“And” between values parts separate entries of the source, which are not always exact repeats. Equal values may be shown once.

T1: Mer3-Strep (full-length S. cerevisiae Mer3 with C-terminal 2xStrep-II tag) (S. cerevisiae, UniProt P51979 1-1187, phosphorylated in insect cells; high-confidence sites S17, S80, T100, S398, S958, T1092)
T1 sequence (looked up): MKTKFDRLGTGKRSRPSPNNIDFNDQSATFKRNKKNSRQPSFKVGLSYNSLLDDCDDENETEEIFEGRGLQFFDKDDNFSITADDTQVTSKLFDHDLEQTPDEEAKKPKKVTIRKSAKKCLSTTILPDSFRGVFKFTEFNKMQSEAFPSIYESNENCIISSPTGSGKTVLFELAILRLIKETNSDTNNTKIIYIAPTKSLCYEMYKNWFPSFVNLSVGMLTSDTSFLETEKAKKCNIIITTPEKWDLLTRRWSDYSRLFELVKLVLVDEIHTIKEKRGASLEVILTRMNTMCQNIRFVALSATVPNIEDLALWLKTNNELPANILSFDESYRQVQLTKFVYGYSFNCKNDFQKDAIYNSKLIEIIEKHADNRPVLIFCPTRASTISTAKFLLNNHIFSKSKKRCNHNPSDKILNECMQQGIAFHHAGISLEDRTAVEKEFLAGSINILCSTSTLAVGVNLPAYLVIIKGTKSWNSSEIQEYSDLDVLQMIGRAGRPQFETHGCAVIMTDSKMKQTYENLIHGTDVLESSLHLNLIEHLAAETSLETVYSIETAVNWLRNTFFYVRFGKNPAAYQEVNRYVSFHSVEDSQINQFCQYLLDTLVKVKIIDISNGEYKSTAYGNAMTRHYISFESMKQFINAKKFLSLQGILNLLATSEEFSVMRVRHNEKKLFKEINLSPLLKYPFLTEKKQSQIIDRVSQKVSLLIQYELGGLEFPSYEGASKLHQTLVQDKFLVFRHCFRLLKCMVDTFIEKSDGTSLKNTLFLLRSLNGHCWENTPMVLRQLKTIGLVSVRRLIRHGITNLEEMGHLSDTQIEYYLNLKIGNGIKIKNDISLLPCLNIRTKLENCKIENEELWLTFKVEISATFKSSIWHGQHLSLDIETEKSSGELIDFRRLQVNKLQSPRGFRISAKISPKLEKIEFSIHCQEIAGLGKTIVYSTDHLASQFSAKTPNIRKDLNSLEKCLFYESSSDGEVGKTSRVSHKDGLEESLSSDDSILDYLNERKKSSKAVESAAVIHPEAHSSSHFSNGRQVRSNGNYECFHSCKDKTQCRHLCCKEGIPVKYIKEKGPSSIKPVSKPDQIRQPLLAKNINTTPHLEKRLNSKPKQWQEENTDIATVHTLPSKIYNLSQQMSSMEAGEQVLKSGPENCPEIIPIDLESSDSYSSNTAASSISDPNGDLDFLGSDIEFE

B1: MBP-Mlh2 (chain of the MBP-Mlh1/MBP-Mlh2 complex) (natural protein, S. cerevisiae, UniProt Q07980 1-695, looked up)
chain: MTIHQLSPESQWKIVSSSFIYGPVAAVRELLDNSIDSGAKKVFIDVDSTTGGCEYISVKDDGSGVDIIDRPSMCLEYTTSKMSSLGDISILTTLGFRGEALFLLSNLCNQKGSMQVETKTADDVIGEKWLVDSKGGITNGKRYKVSCPVGTTVILRKLLGGLRARYLEISSRPRKTFDELIYLINHYSLIHRNIRFYFSLVSLQKNGAIERKQMQETLDPKISRARSLSLLARLKKPVPLNFIVEENFVIDEKINLDLILPRMVPESDVINIKRRFKFLSVNERALSLNLETGKTISKLLSSIYRDFSLLDPMVWFINLNCDTKLLDVNIEPEKNDVMIKSFEVIFKKIENKLKLLLEERIGIETNMLGDKHVQPSINEKTSPALVIPTPDAENEISKGCGAVSGKDKTDIPQKNSDLIVPTFYDEANLENTTIVAATPSPTKFSEDKALDEQTQLTISSYRSSSSGSMASEDSTNWRHNFQQELSENSEVAGAGSSTLPSSLTYNYIETIPENEDLELSKDASISNPFMITKIRNVNKKLSENLLEAKRTSCGDANKRGMPNERQLSNTEKKELIKLQQTYGKRNNTVDMTIPRNSKKKVTDNYIKKASCMHKTRPKLMHFSEYTNNYVYTLKNEKIVKHDSDNFAKETLWLRSRDDATSPSSSLLQALRAHVKKPGHIEATTNEWCLFTPDSP
notes: Mlh2, S. cerevisiae, from SK1 strain genomic DNA; Same chain as in m6; source: Hi5 insect cells (co-expressed with MBP-Mlh1), purified (MBP-trap, heparin, SEC); not shown: His6, N-terminal, kept; MBP, N-terminal, kept
B2: His-Top3 (enzyme, S. cerevisiae, UniProt P13099 1-656, looked up)
chain: MKVLCVAEKNSIAKAVSQILGGGRSTSRDSGYMYVKNYDFMFSGFPFARNGANCEVTMTSVAGHLTGIDFSHDSHGWGKCAIQELFDAPLNEIMNNNQKKIASNIKREARNADYLMIWTDCDREGEYIGWEIWQEAKRGNRLIQNDQVYRAVFSHLERQHILNAARNPSRLDMKSVHAVGTRIEIDLRAGVTFTRLLTETLRNKLRNQATMTKDGAKHRGGNKNDSQVVSYGTCQFPTLGFVVDRFERIRNFVPEEFWYIQLVVENKDNGGTTTFQWDRGHLFDRLSVLTFYETCIETAGNVAQVVDLKSKPTTKYRPLPLTTVELQKNCARYLRLNAKQSLDAAEKLYQKGFISYPRTETDTFPHAMDLKSLVEKQAQLDQLAAGGRTAWASYAASLLQPENTSNNNKFKFPRSGSHDDKAHPPIHPIVSLGPEANVSPVERRVYEYVARHFLACCSEDAKGQSMTLVLDWAVERFSASGLVVLERNFLDVYPWARWETTKQLPRLEMNALVDIAKAEMKAGTTAPPKPMTESELILLMDTNGIGTDATIAEHIDKIQVRNYVRSEKVGKETYLQPTTLGVSLVHGFEAIGLEDSFAKPFQRREMEQDLKKICEGHASKTDVVKDIVEKYRKYWHKTNACKNTLLQVYDRVKASM
notes: Top3 (type IA topoisomerase), S. cerevisiae, from SK1 strain genomic DNA; also called His-tagged Top3; source: Hi5 insect cells, purified (TALON, heparin, ResourceS, SEC); not shown: His6, N-terminal, kept
B3: Top3/Rmi1 complex (as used in MST and XL-MS) (complex, S. cerevisiae)
chain 1: B2 chain
chain 2: MSFSSILSQDITDDITPPAYSATLGSREQIVFRAYQNEPWLAGTASNLILDKKLVIVDRELLFQVLMVENITKSKLTQIDDIKTKLDPKKQKVDRLRSGAQGNGAKKYEVITQVDMEDDGNVADNNCAKENNSNNNSSAAKNKAVFKLTLQSKSGDVFFAINSTPISWSSCMLGSKIVILPGTVFNRGVFILKDSQVIFLGGINRVWNENRDQKFCDYLESKLQRDKQLVNGGSKKRKAND
notes: Top3 (type IA topoisomerase), S. cerevisiae, from SK1 strain genomic DNA; untagged; Rmi1, S. cerevisiae, from SK1 strain genomic DNA; The methods describe a GST-tagged and an untagged (3C protease cleaved) preparation; source: Hi5 insect cells (co-expressed from pBIG1a), purified
B4: Rmi1 (as used in MST and XL-MS) (natural protein, S. cerevisiae, UniProt Q02685 1-241, looked up)
chain: B3 chain 2
notes: Rmi1, S. cerevisiae, from SK1 strain genomic DNA; The methods describe GST-Rmi1 and untagged (3C protease cleaved) Rmi1; also called Rmi1 alone; source: Hi5 insect cells, purified
B5: Top3, untagged (chain of the Top3/Rmi1 complex) (enzyme, S. cerevisiae, UniProt P13099 1-656, looked up)
chain: B2 chain
notes: Top3 (type IA topoisomerase), S. cerevisiae, from SK1 strain genomic DNA; untagged; Same chain as in m10 and m11; source: Hi5 insect cells (co-expressed with GST-Rmi1), purified with Rmi1

Assays:
[1] = target: Mer3-Strep (full-length S. cerevisiae Mer3 with C-terminal 2xStrep-II tag) (S. cerevisiae) (UniProt P51979); experiment: SEC-MALS; full-length Mer3, 10 μM at injection, Superose 6 5/150; 30 mM HEPES pH 6.8, 300 mM NaCl, 1 mM MgCl2, 5 μM ZnCl2, 1 mM TCEP
[2] = target: T1, Mer3-Strep (full-length S. cerevisiae …); experiment: cross-linking; XL-MS with DSBU, proteins 3 μM, 1 h at 25°C; 30 mM HEPES 6.8, 150 mM NaCl, 5% glycerol, 1 mM MgCl2, 1 mM TCEP; samples: Mer3, Mlh1/Mlh2, Mer3/Mlh1/Mlh2, Top3/Rmi1, Mer3/Top3/Rmi1; conditions: both partners purified
[3] = target: T1, Mer3-Strep (full-length S. cerevisiae …); experiment: pull-down; Mer3-Strep (0.7 μM) held by anti-Strep antibody and protein G beads (the legend says StrepTactin pulldown), His-Top3 1.3 μM; 25 mM HEPES pH 7.5, 5% glycerol, 50 mM NaCl, 1 mM TCEP, 0.1% Tween-20; western blot; conditions: both partners purified
[4] = target: T1, Mer3-Strep (full-length S. cerevisiae …); experiment: MST; 45 nM RED-NHS labelled Mer3, partner titrated; 50 mM Tris–HCl pH 7.4, 150 mM NaCl, 10 mM MgCl2, 0.05% Tween-20; 25°C; triplicates; conditions: both partners purified
[5] = target: B5; experiment: cross-linking; XL-MS with DSBU, proteins 3 μM, 1 h at 25°C; 30 mM HEPES 6.8, 150 mM NaCl, 5% glycerol, 1 mM MgCl2, 1 mM TCEP; samples: Mer3, Mlh1/Mlh2, Mer3/Mlh1/Mlh2, Top3/Rmi1, Mer3/Top3/Rmi1; conditions: both partners purified

Molecule	binding result [2]	Kd [4]	other results
Mer3-Strep (full-length S. cerevisiae Mer3 with C-terminal 2xStrep-II tag) (from UniProt P51979 1-1187) (enzyme)			stoichiometry N [1]: 2
B1	binds		
B2			binding result [3]: binds
B3		0.844 ± 0.148 µM	
B4		1.99 µM and 1.98 µM	binding result [5]: binds
B5	binds		
